Reference: PMC4850634, “Characterization of an A-kinase anchoring protein-like suggests an alternative way of PKA anchoring in Plasmodium falciparum” (Malaria Journal, 2016)

Target: the molecule itself
Test: SEC; Superdex S200 10/300 Increase, 20 mM Tris-HCl pH 8, 300 mM NaCl; affinity-purified (His)6 protein; peak fractions checked by 12.5 % SDS-PAGE

B1: (His)6-Pf14-3-3I (natural protein, Plasmodium falciparum, UniProt C0H4V6 1-262, looked up)
chain: MATSEELKQLRCDCTYRSKLAEQAERYDEMADAMRTLVEQCVNNDKDELTVEERNLLSVAYKNAVGARRASWRIISSVEQKEMSKANVHNKNVAATYRKKVEEELNNICQDILNLLTKKLIPNTSESESKVFYYKMKGDYYRYISEFSCDEGKKEASNCAQEAYQKATDIAENELPSTHPIRLGLALNYSVFFYEILNQPHQACEMAKRAFDDAITEFDNVSEDSYKDSTLIMQLLRDNLTLWTSDLQGDQTEEKSKDEGLE
notes: 14-3-3I protein, Plasmodium falciparum, PlasmoDB MAL8P1.69/PF3D7_0818200; amplified from a P. falciparum cDNA library with primers from the start to the stop codon, cloned into pRSFDuet; recombinant protein 30 kDa; source: E. coli BL21 Codon Plus, purified (Ni-NTA-agarose)
stoichiometry N: 2
